These results are taken from patent US20180016324A1 (Regeneron, published 2018).

Assay [1] has as its target T1, ZIKV (prM80E) with a C-terminal myc-myc-hexahistidine tag (Zika virus, UniProt A0A024B7W1 104-694).
T1 construct: also called ZIKV (prM80E)-mmH; ZIKV-mmH
In words: SPR, mAb captured, 37C. (Surface plasmon resonance follows binding to a sensor surface in real time, without labels.)

Assay [2] addresses T1, ZIKV (prM80E) with a C-terminal …. Put plainly: SPR, mAb captured, 37C. The source holds these as a separate data set.
Assay [3] has the same target. Put plainly: SPR, mAb captured, 37C, pH 5.0 chase.
The target is the same in assay [4]. Put plainly: SPR, mAb captured, 37C. The source holds these as a separate data set.
In assay [5] the target is T2, ZIKV envelope glycoprotein (E) of strain MR766 (Uganda 1947) (Zika virus, UniProt Q32ZE1 291-790). Put plainly: cell-based or functional assay.
The target of assay [6] is ZIKV envelope glycoprotein (E) of strain FLR (Colombia 2015) (Zika virus). Put plainly: cell-based or functional assay.
Assay [7] addresses ZIKV envelope glycoprotein (E) of strain PRVABC59 (Puerto Rico 2015) (Zika virus). In words: cell-based or functional assay.
The target of assay [8] is T3, ZIKV prM/E polyprotein on virus-like particles (VLPs) from HEK293T/17 cells (Zika virus, UniProt A0A024B7W1 123-795).
T3 construct: also called ZIKV prM/E VLPs; Zika prM/E VLPs
Put plainly: MSD ECL, VLPs on plate; high concentrations excluded from fit.

Assay [9] deals with T1, ZIKV (prM80E) with a C-terminal …. Put plainly: SPR, mAb captured, 25C.
The target is the same in assay [10]. Put plainly: SPR, mAb captured, 37C, pH 7.4.
Assay [11] has the same target. In words: SPR, mAb captured, 37C, pH 6.0 chase.
Assay [12] has the same target. Put plainly: SPR, mAb captured, 37C, pH 5.5 chase.
Assay [13] deals with T3, ZIKV prM/E polyprotein on virus-like …. In words: MSD ECL, VLPs on plate.
The target of assay [14] is ZIKV E protein with escape mutation S302F (Zika virus). Put plainly: cell-based or functional assay.
Assay [15] concerns the target T2, ZIKV envelope glycoprotein (E) of …. Put plainly: cell-based or functional assay. The source holds these as a separate data set.

Read-outs that look alike come from different tables or passages of the source.

B1: H4H25704N (antibody, V domains shown)
VH: QVQLVESGGGVVQSGRSLRLSCAASGFTFIYYGMHWVRQAPGKGLEWVAVISYDGSDRYYADSVKGRFTISRDDSKNTLYLQMNSLRPEDTAVYYCAKDRGGRFDYWGQGTLVTVSS
VL: EIVLTQSPGTLSLSPGERATLSCRASQSVNNNYLAWYQQKPGQAPRLLIYGASSRATGIPDRFGGGGSGTDFTLTISRLEPEDFAVYYCQRYGNSPLTFGGGTKVEIK
The term koff denotes the first-order rate constant of dissociation. A lower koff goes with a long-lived complex. By t½ is commonly meant the time in which the quantity being followed falls by half. Low values mean fast loss, high ones slow loss. In general, Kd refers to the concentration at which binding is half-saturated. Read a high Kd as weaker binding. In general, kon refers to the second-order rate constant of association. Read a high kon as fast association. As usually defined, the EC50 is the concentration that produces a half-maximal response. As for B1, in assay [1], the “t½ pH 7.4/t½ pH 6.0” value worked out at 1.1. Moreover, the “t½ pH 7.4/t½ pH 5.0” value in [2] is 0.8. Besides, the “t½ pH 7.4/t½ pH 5.5” value in assay [2] was determined as 0.9. In addition, the off-rate constant (koff) is 0.000959 s⁻¹ in assay [3]; 0.0012 s⁻¹ in [4]; 0.000359 s⁻¹ in assay [9]; 0.00121 s⁻¹ in assay [10]; 0.00131 s⁻¹ in assay [11]; 0.00107 s⁻¹ in [12]. The t½ was found to be 12 min in [3]; 9.6 min in [4]; 32.2 min in [9]; 9.56 min in assay [10]; 8.85 min in assay [11]; 10.8 min in assay [12]. Also, the dissociation constant (Kd) in assay [4] was 0.621 nM; in assay [9], 0.27 nM. For the same molecule, the results for the kon in assay [4] and in assay [9] were 1.93e+06 M⁻¹ s⁻¹ and 1.33e+06 M⁻¹ s⁻¹, respectively. Further, the “neutralization IC50, Vero cells” value stood at 0.046 nM in assay [5], 0.0758 nM in assay [6] and 0.278 nM in assay [7]. In addition, a half-maximal effect in assay [8] (EC50) was put at 0.18 nM.

B2: H4H25619P (antibody, V domains shown)
VH: QVQLVESGGGVVQPGRSLRLSCTASGFTFSTYGMHWVRHVPGKGLEWVAIVWYDGSDKSYAASVKGRFTISRDNSKNTLFLQMNSLRAEDTAVYYCARQGTYYYYGMDVWGQGTTVTVSS
VL: DIQMTQSPSSLSASVGDRVTITCRSSQTITNYLNWYQQRPGKAPKLLIYAASSLQSGVPSRFSGSGSGTDFTLTISSLQPEDFATYYCQQSYSTPPITFGQGTKLEIKR
Regarding B2, the “t½ pH 7.4/t½ pH 6.0” value in [1] was 0.5. In addition, the “t½ pH 7.4/t½ pH 5.0” value in assay [2] amounted to 0.3. For the same molecule, the “t½ pH 7.4/t½ pH 5.5” value in [2] came to 0.5. Besides, the koff in [3] stood at 0.000548 s⁻¹; in assay [4], 0.00108 s⁻¹; in [9], 0.000516 s⁻¹; in assay [10], 0.00193 s⁻¹; in [11], 0.00102 s⁻¹; in [12], 0.000953 s⁻¹. Moreover, the t½ in assay [3] is 21.1 min; in assay [4] it was 10.7 min; in assay [9], 22.4 min; in [10], 6 min; in assay [11], 11.3 min; in assay [12], 12.1 min. The dissociation constant (Kd) in assay [4] was 5.59 nM; in assay [9], 3.14 nM. Further, the kon was 193000 M⁻¹ s⁻¹ in [4] and 164000 M⁻¹ s⁻¹ in assay [9]. Besides, in assay [13], the EC50 is 1.92 nM. In addition, the “neutralization IC50, Vero cells” value turned out to be 0.171 nM in [5], 1.26 nM in [6] and 1.14 nM in [7]. For the same molecule, the “IC50 (read off the curve)” value in assay [14] is around 1 nM.

B3: H4H25622P (antibody, V domains shown)
VH: QVQLVESGGGVVQPGRSLRLSCAASGFTFSSYGMHWVRQAPGKGLEWLAIIWYDGTNKQYVDSVKGRFTISRDNSKNTLYLQLNSLRAEDTAVYYCARQDFYYYYGMDVWGQGTTVTVSS
VL: not shown
Turning to B3, the “t½ pH 7.4/t½ pH 6.0” value in assay [1] stood at 0.7. Besides, the “t½ pH 7.4/t½ pH 5.0” value in assay [2] worked out at 0.2. Also, the “t½ pH 7.4/t½ pH 5.5” value in assay [2] amounted to 0.6. Further, the koff in assay [3] amounted to 0.000704 s⁻¹; in assay [4] it was 0.00267 s⁻¹; in assay [9], 0.00133 s⁻¹; in assay [10], 0.00318 s⁻¹; in [11], 0.00234 s⁻¹; in assay [12], 0.00178 s⁻¹. The t½ turned out to be 16.4 min in assay [3]; 4.3 min in assay [4]; 8.7 min in assay [9]; 3.63 min in assay [10]; 4.93 min in [11]; 6.49 min in assay [12]. Also, the results for the Kd in [4] and in assay [9] were 9.07 nM and 5.31 nM, respectively. The kon in assay [4] was 295000 M⁻¹ s⁻¹; in [9], 251000 M⁻¹ s⁻¹. The 50% effective concentration (EC50) in assay [13] was determined as 2.44 nM. Besides, the “neutralization IC50, Vero cells” value in [5] was 0.188 nM; in [6] it was 1.58 nM; in assay [7], 1.28 nM.

B4: H4H25640P (antibody, V domains shown)
VH: QVQLVESGGGVVQPGRSLRLSCAASGFTFSYYGMHWVRQAPGKGLEWVAVILYDGSNKFYSDSVKGRFTISRDNSRNTLYLQMNSLRLEDTAVYYCAKDYGGRFDYWGQGTLVTVSS
VL: EIVLTQSPGTLSLSSGERATLSCRASQSVSNKYLAWYQQKPGQVPRLLIYGASNRATGIPDRFSGSGSGTDFTLTINRLEPEDFAVFYCQQYGSTPSTFGQGTKVEIK
On to B4, for which, in assay [1], the “t½ pH 7.4/t½ pH 6.0” value amounted to 1.9. In assay [2], the “t½ pH 7.4/t½ pH 5.0” value was determined as 2. Besides, the “t½ pH 7.4/t½ pH 5.5” value in [2] amounted to 2.3. In addition, the dissociation rate constant (koff) in assay [3] is 0.00337 s⁻¹; in [4] it was 0.00186 s⁻¹; in [9], 0.000722 s⁻¹; in assay [10], 0.00172 s⁻¹; in assay [11], 0.00323 s⁻¹; in assay [12] it was 0.00402 s⁻¹. The t½ in assay [3] came out at 3.4 min; in assay [4], 6.2 min; in assay [9] it was 16 min; in assay [10], 6.72 min; in [11], 3.58 min; in [12], 2.87 min. In addition, the values for the Kd in assay [4] and in [9] were 1.27 nM and 0.597 nM, respectively. The kon in assay [4] is 1.47e+06 M⁻¹ s⁻¹; in assay [9], 1.21e+06 M⁻¹ s⁻¹. Further, the “neutralization IC50, Vero cells” value turned out to be 0.0279 nM in [5], 0.099 nM in [6] and 0.166 nM in assay [7]. In assay [8], this molecule displayed an EC50 of 0.102 nM.

B5: H4H25617P (antibody, V domains shown)
VH: EVQLVESGGGLVQPGGSLRLSCSASGFTFTTYAMSWVRQAPGRGLEWVSSISGTGVSTYYADSVKGRFTISRDNSKNALYLQMNSLTAEDTAVYYCAKDSGTYHWGQGTLVTVSS
VL: EIVLTQSPATLSLSPGERATLSCRASQSVDSYLAWYQQKPGQAPRLLIYDASNRATGIPARFSGSGSGTDFTLTISSLESEDFAVYYCQQRRNWPQFTFGGGTKVEIK
As to B5, the “t½ pH 7.4/t½ pH 6.0” value in assay [1] worked out at 0.8. In addition, the “t½ pH 7.4/t½ pH 5.0” value in assay [2] turned out to be 0.8. In [2], the “t½ pH 7.4/t½ pH 5.5” value is 0.8. Further, the koff in assay [3] was 0.00464 s⁻¹; in assay [4] it was 0.00729 s⁻¹; in assay [9], 0.00197 s⁻¹; in assay [10], 0.00602 s⁻¹; in assay [11], 0.00494 s⁻¹; in assay [12] it was 0.00465 s⁻¹. For the same molecule, the t½ in assay [3] was found to be 2.5 min; in assay [4], 1.6 min; in [9], 5.9 min; in assay [10], 1.92 min; in assay [11], 2.34 min; in assay [12] it was 2.48 min. The equilibrium dissociation constant (Kd) amounted to 16.1 nM in assay [4] and 7.9 nM in assay [9]. The kon in assay [4] was 452000 M⁻¹ s⁻¹; in [9], 250000 M⁻¹ s⁻¹. The molecule also yielded an EC50 in [13] of 0.755 nM. Besides, the figures for the “neutralization IC50, Vero cells” value in [5], in assay [6] and in assay [7] were 0.166 nM, 0.552 nM and 0.543 nM, respectively.

B6: H2aM25710N (antibody, V domains shown)
VH: EVQLLESGGGLVQPGGSLRLSCAASGFTVSNNYMSWVRQAPGKGLEWVSVIYSGGRTNYGDSVKGRFTISRDNSKNTLYLQMNSLRAEDTAVYYCARENYDFWSGDPYGWDVWGQGTTVTVSS
VL: DIQMTQSPSSLSASVGDRVTITCRASQDISNYLAWFQQKPGKAPKSLIYGASSLQRGVPSKFRGSGSGTDFTLTISSLQPEDFASYYCQQYNSYPYTFGQGTKLEIK
B6 returned an EC50 in assay [13] of 0.244 nM. The “neutralization IC50, Vero cells” value in assay [15] came out at 0.017 nM.
